Reference: US20080300385A1

Columns and labels:
[1] = molecular target: Tat protein from HIV-1 strain BH10 (HIV-1 strain BH10) (UniProt P69697); assay: ITC in free solution (FIG. 7)
[2] = molecular target: Tat protein from HIV-1 strain BH10 (HIV-1 strain BH10) (UniProt P69697); assay: SPR, kinetic experiment (FIG. 5B)

In the case of “gp140 Env protein from HIV-1 strain SF162 (o-gp140SF162), trimer (from UniProt P19550 32-675)”, the stoichiometry (Tat molecules per Env trimer) (Tat molecules per Env trimer) [1] is reported as 3 and the Kd [2] is reported as 37 nM.
